Results from patent US20260015399A1 (Boehringer Ingelheim, published 2026).
*1 amine or outer side, *2 acyl side, *3 side chain or, on linkers, in order; H or OH if unused. Side-chain parts run from the residue outwards. The star is where a group is joined. C18 diacid = O=C(O)CCCCCCCCCCCCCCCCC(=O)*; γGlu = O=C(O)[C@H](CCC(=O)[*:2])N[*:1]; Isovaleryl = CC(C)CC(=O)*; Ahx = NCCCCCC(=O)O

T1: human NPY2 receptor (human, UniProt P49146 1-381)
T1 construct: whole, on cells; also called hNPY2-R; hNPY2R
T1 sequence (looked up): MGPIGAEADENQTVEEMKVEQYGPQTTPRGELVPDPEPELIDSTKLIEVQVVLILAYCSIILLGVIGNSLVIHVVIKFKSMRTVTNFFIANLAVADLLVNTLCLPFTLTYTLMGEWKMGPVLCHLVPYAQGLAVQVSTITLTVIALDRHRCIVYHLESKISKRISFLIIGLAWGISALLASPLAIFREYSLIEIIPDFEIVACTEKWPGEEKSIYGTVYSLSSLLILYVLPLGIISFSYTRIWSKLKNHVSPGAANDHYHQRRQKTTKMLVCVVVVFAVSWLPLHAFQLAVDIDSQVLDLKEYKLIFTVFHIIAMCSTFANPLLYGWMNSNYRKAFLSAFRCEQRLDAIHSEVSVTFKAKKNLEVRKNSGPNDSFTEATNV


Molecular target: T1, human NPY2 receptor
Assay: RLB: displacement of 125I-PYY(1-36) from hNPY2R membranes

Ki [nM]	Binder
0.41	Isovaleryl-APEK([Ahx-γGlu-C18 diacid])PPADASPEEIQRYYVSLRHYYNWLTRQRY-NH2 (SMILES CC[C@H](C)[C@H](NC(=O)[C@H](CCC(=O)O)NC(=O)[C@H](CCC(=O)O)NC(=O)[C@@H]1CCCN1C(=O)[C@H](CO)NC(=O)[C@H](C)NC(=O)[C@H](CC(=O)O)NC(=O)[C@H](C)NC(=O)[C@@H]1CCCN1C(=O)[C@@H]1CCCN1C(=O)[C@H](CCCCNC(=O)CCCCCNC(=O)CC[C@H](NC(=O)CCCCCCCCCCCCCCCCC(=O)O)C(=O)O)NC(=O)[C@H](CCC(=O)O)NC(=O)[C@@H]1CCCN1C(=O)[C@H](C)NC(=O)CC(C)C)C(=O)N[C@@H](CCC(N)=O)C(=O)N[C@@H](CCCNC(=N)N)C(=O)N[C@@H](Cc1ccc(O)cc1)C(=O)N[C@@H](Cc1ccc(O)cc1)C(=O)N[C@H](C(=O)N[C@@H](CO)C(=O)N[C@@H](CC(C)C)C(=O)N[C@@H](CCCNC(=N)N)C(=O)N[C@@H](Cc1c[nH]cn1)C(=O)N[C@@H](Cc1ccc(O)cc1)C(=O)N[C@@H](Cc1ccc(O)cc1)C(=O)N[C@@H](CC(N)=O)C(=O)N[C@@H](Cc1c[nH]c2ccccc12)C(=O)N[C@@H](CC(C)C)C(=O)N[C@H](C(=O)N[C@@H](CCCNC(=N)N)C(=O)N[C@@H](CCC(N)=O)C(=O)N[C@@H](CCCNC(=N)N)C(=O)N[C@@H](Cc1ccc(O)cc1)C(N)=O)[C@@H](C)O)C(C)C) [Compound 61]
1.44	Isovaleryl-APAK([Ahx-γGlu-C18 diacid])PPEDASPEELQRYYVELRHYYNWLTRQRY-NH2 (SMILES CC(C)CC(=O)N[C@@H](C)C(=O)N1CCC[C@H]1C(=O)N[C@@H](C)C(=O)N[C@@H](CCCCNC(=O)CCCCCNC(=O)CC[C@H](NC(=O)CCCCCCCCCCCCCCCCC(=O)O)C(=O)O)C(=O)N1CCC[C@H]1C(=O)N1CCC[C@H]1C(=O)N[C@@H](CCC(=O)O)C(=O)N[C@@H](CC(=O)O)C(=O)N[C@@H](C)C(=O)N[C@@H](CO)C(=O)N1CCC[C@H]1C(=O)N[C@@H](CCC(=O)O)C(=O)N[C@@H](CCC(=O)O)C(=O)N[C@@H](CC(C)C)C(=O)N[C@@H](CCC(N)=O)C(=O)N[C@@H](CCCNC(=N)N)C(=O)N[C@@H](Cc1ccc(O)cc1)C(=O)N[C@@H](Cc1ccc(O)cc1)C(=O)N[C@H](C(=O)N[C@@H](CCC(=O)O)C(=O)N[C@@H](CC(C)C)C(=O)N[C@@H](CCCNC(=N)N)C(=O)N[C@@H](Cc1c[nH]cn1)C(=O)N[C@@H](Cc1ccc(O)cc1)C(=O)N[C@@H](Cc1ccc(O)cc1)C(=O)N[C@@H](CC(N)=O)C(=O)N[C@@H](Cc1c[nH]c2ccccc12)C(=O)N[C@@H](CC(C)C)C(=O)N[C@H](C(=O)N[C@@H](CCCNC(=N)N)C(=O)N[C@@H](CCC(N)=O)C(=O)N[C@@H](CCCNC(=N)N)C(=O)N[C@@H](Cc1ccc(O)cc1)C(N)=O)[C@@H](C)O)C(C)C) [Compound 62]
2.33	Isovaleryl-APEK([Ahx-γGlu-C18 diacid])PEEDATPEELQRYYISLRHYYNWLTRQRY-NH2 (SMILES CC[C@H](C)[C@H](NC(=O)[C@H](Cc1ccc(O)cc1)NC(=O)[C@H](Cc1ccc(O)cc1)NC(=O)[C@H](CCCNC(=N)N)NC(=O)[C@H](CCC(N)=O)NC(=O)[C@H](CC(C)C)NC(=O)[C@H](CCC(=O)O)NC(=O)[C@H](CCC(=O)O)NC(=O)[C@@H]1CCCN1C(=O)[C@@H](NC(=O)[C@H](C)NC(=O)[C@H](CC(=O)O)NC(=O)[C@H](CCC(=O)O)NC(=O)[C@H](CCC(=O)O)NC(=O)[C@@H]1CCCN1C(=O)[C@H](CCCCNC(=O)CCCCCNC(=O)CC[C@H](NC(=O)CCCCCCCCCCCCCCCCC(=O)O)C(=O)O)NC(=O)[C@H](CCC(=O)O)NC(=O)[C@@H]1CCCN1C(=O)[C@H](C)NC(=O)CC(C)C)[C@@H](C)O)C(=O)N[C@@H](CO)C(=O)N[C@@H](CC(C)C)C(=O)N[C@@H](CCCNC(=N)N)C(=O)N[C@@H](Cc1c[nH]cn1)C(=O)N[C@@H](Cc1ccc(O)cc1)C(=O)N[C@@H](Cc1ccc(O)cc1)C(=O)N[C@@H](CC(N)=O)C(=O)N[C@@H](Cc1c[nH]c2ccccc12)C(=O)N[C@@H](CC(C)C)C(=O)N[C@H](C(=O)N[C@@H](CCCNC(=N)N)C(=O)N[C@@H](CCC(N)=O)C(=O)N[C@@H](CCCNC(=N)N)C(=O)N[C@@H](Cc1ccc(O)cc1)C(N)=O)[C@@H](C)O) [Compound 66]

The remaining lines, values behind:

Binder	Ki [nM]
Isovaleryl-APEK([Ahx-γGlu-C18 diacid])PEEDASPEELQRYYVSLRHYYQWLTRQRY-NH2 (SMILES CC(C)CC(=O)N[C@@H](C)C(=O)N1CCC[C@H]1C(=O)N[C@@H](CCC(=O)O)C(=O)N[C@@H](CCCCNC(=O)CCCCCNC(=O)CC[C@H](NC(=O)CCCCCCCCCCCCCCCCC(=O)O)C(=O)O)C(=O)N1CCC[C@H]1C(=O)N[C@@H](CCC(=O)O)C(=O)N[C@@H](CCC(=O)O)C(=O)N[C@@H](CC(=O)O)C(=O)N[C@@H](C)C(=O)N[C@@H](CO)C(=O)N1CCC[C@H]1C(=O)N[C@@H](CCC(=O)O)C(=O)N[C@@H](CCC(=O)O)C(=O)N[C@@H](CC(C)C)C(=O)N[C@@H](CCC(N)=O)C(=O)N[C@@H](CCCNC(=N)N)C(=O)N[C@@H](Cc1ccc(O)cc1)C(=O)N[C@@H](Cc1ccc(O)cc1)C(=O)N[C@H](C(=O)N[C@@H](CO)C(=O)N[C@@H](CC(C)C)C(=O)N[C@@H](CCCNC(=N)N)C(=O)N[C@@H](Cc1c[nH]cn1)C(=O)N[C@@H](Cc1ccc(O)cc1)C(=O)N[C@@H](Cc1ccc(O)cc1)C(=O)N[C@@H](CCC(N)=O)C(=O)N[C@@H](Cc1c[nH]c2ccccc12)C(=O)N[C@@H](CC(C)C)C(=O)N[C@H](C(=O)N[C@@H](CCCNC(=N)N)C(=O)N[C@@H](CCC(N)=O)C(=O)N[C@@H](CCCNC(=N)N)C(=O)N[C@@H](Cc1ccc(O)cc1)C(N)=O)[C@@H](C)O)C(C)C) [Compound 60]	6.04
Isovaleryl-APEK([Ahx-γGlu-C18 diacid])PEEDAEPEELQRYYVSLRHYYQWLTRQRY-NH2 (SMILES CC(C)CC(=O)N[C@@H](C)C(=O)N1CCC[C@H]1C(=O)N[C@@H](CCC(=O)O)C(=O)N[C@@H](CCCCNC(=O)CCCCCNC(=O)CC[C@H](NC(=O)CCCCCCCCCCCCCCCCC(=O)O)C(=O)O)C(=O)N1CCC[C@H]1C(=O)N[C@@H](CCC(=O)O)C(=O)N[C@@H](CCC(=O)O)C(=O)N[C@@H](CC(=O)O)C(=O)N[C@@H](C)C(=O)N[C@@H](CCC(=O)O)C(=O)N1CCC[C@H]1C(=O)N[C@@H](CCC(=O)O)C(=O)N[C@@H](CCC(=O)O)C(=O)N[C@@H](CC(C)C)C(=O)N[C@@H](CCC(N)=O)C(=O)N[C@@H](CCCNC(=N)N)C(=O)N[C@@H](Cc1ccc(O)cc1)C(=O)N[C@@H](Cc1ccc(O)cc1)C(=O)N[C@H](C(=O)N[C@@H](CO)C(=O)N[C@@H](CC(C)C)C(=O)N[C@@H](CCCNC(=N)N)C(=O)N[C@@H](Cc1c[nH]cn1)C(=O)N[C@@H](Cc1ccc(O)cc1)C(=O)N[C@@H](Cc1ccc(O)cc1)C(=O)N[C@@H](CCC(N)=O)C(=O)N[C@@H](Cc1c[nH]c2ccccc12)C(=O)N[C@@H](CC(C)C)C(=O)N[C@H](C(=O)N[C@@H](CCCNC(=N)N)C(=O)N[C@@H](CCC(N)=O)C(=O)N[C@@H](CCCNC(=N)N)C(=O)N[C@@H](Cc1ccc(O)cc1)C(N)=O)[C@@H](C)O)C(C)C) [Compound 68]	9.07
Isovaleryl-APEK([Ahx-γGlu-C18 diacid])PPADASPEETQRYYVSLRHYYNWLTRQRY-NH2 (SMILES CC(C)CC(=O)N[C@@H](C)C(=O)N1CCC[C@H]1C(=O)N[C@@H](CCC(=O)O)C(=O)N[C@@H](CCCCNC(=O)CCCCCNC(=O)CC[C@H](NC(=O)CCCCCCCCCCCCCCCCC(=O)O)C(=O)O)C(=O)N1CCC[C@H]1C(=O)N1CCC[C@H]1C(=O)N[C@@H](C)C(=O)N[C@@H](CC(=O)O)C(=O)N[C@@H](C)C(=O)N[C@@H](CO)C(=O)N1CCC[C@H]1C(=O)N[C@@H](CCC(=O)O)C(=O)N[C@@H](CCC(=O)O)C(=O)N[C@H](C(=O)N[C@@H](CCC(N)=O)C(=O)N[C@@H](CCCNC(=N)N)C(=O)N[C@@H](Cc1ccc(O)cc1)C(=O)N[C@@H](Cc1ccc(O)cc1)C(=O)N[C@H](C(=O)N[C@@H](CO)C(=O)N[C@@H](CC(C)C)C(=O)N[C@@H](CCCNC(=N)N)C(=O)N[C@@H](Cc1c[nH]cn1)C(=O)N[C@@H](Cc1ccc(O)cc1)C(=O)N[C@@H](Cc1ccc(O)cc1)C(=O)N[C@@H](CC(N)=O)C(=O)N[C@@H](Cc1c[nH]c2ccccc12)C(=O)N[C@@H](CC(C)C)C(=O)N[C@H](C(=O)N[C@@H](CCCNC(=N)N)C(=O)N[C@@H](CCC(N)=O)C(=O)N[C@@H](CCCNC(=N)N)C(=O)N[C@@H](Cc1ccc(O)cc1)C(N)=O)[C@@H](C)O)C(C)C)[C@@H](C)O) [Compound 69]	0.54
